# Experimental data reported in paper PMC12612255.
# Biological target: CNOT1 (UniProt A5YKK6)
# Assay: co-IP with FLAG-tagged YTHDF2
# Details: reference: wild type; sites S39
substance,measurement,value
YTHDF2 (from UniProt Q9Y5A9) S39A,binding against the reference,weaker
